Assay results from PMC3005950.

What was measured:
[1] = biological target: IL-7Ralpha ECD (Homo sapiens) (UniProt P16871); details: cited from earlier work
[2] = biological target: IL-7 receptor alpha chain extracellular domain, nonglycosylated, IL-7Ralpha (EC) (UniProt P16871); assay: SPR; details: pH 7.4, 298 K, 10 mM HEPES (pH 7.4)
[3] = biological target: IL-7 receptor alpha chain extracellular domain, glycosylated, IL-7Ralpha (CHO) (UniProt P16871); assay: SPR; details: pH 7.4, 298 K, 10 mM HEPES (pH 7.4)

Row | ΔG^o ([2]; 50 mM NaCl) [kcal/mol] | k−1 ([2]; 300 mM NaCl) [s⁻¹] | ΔG^o ([2]; 300 mM NaCl) [kcal/mol] | ΔG^o ([3]; 50 mM NaCl) [kcal/mol] | ΔG^o ([3]; 1 M NaCl) [kcal/mol] | Substance | Kd [1] [nM]
1 | – | – | – | – | – | IL-7 (from UniProt P13232) | 60
2 | -7.72 | 0.121 | -4.68 | -11.8 | -8.33 | Interleukin-7 (IL-7) | –
